One test deals with porcine FSH (porcine, UniProt P01219 25-120; P01228 21-129). Briefly: cell-based or functional assay.
Test [1] concerns the target T1, ovine FSH (ovine, UniProt P01218 25-120; P01227 20-129). Briefly: cell-based or functional assay.
For test [2], the target named is human FSH (preparation not named) (human, UniProt P01215 25-116; P01225 19-129). Briefly: cell-based or functional assay.
For test [3], the target named is human FSH Gonal-F (recombinant human FSH, Merck Serono) (human, UniProt P01215 25-116; P01225 19-129). Briefly: cell-based or functional assay.
For test [4], the target named is T2, hMG Menopur (human menopausal gonadotropin, Ferring Pharmaceuticals) (human).
T2 construct: numbers for it cannot be laid to one hormone
Briefly: ELISA saturation binding on adsorbed hormone; Kd estimated with GraphPad Prism 'One site-Specific binding'. On the procedure: (§1) Each hormone evaluated was prepared at the concentration of 10 μg/ml in a 0.1 M sodium carbonate buffer, pH 9.6, and distributed in a proportion of 100 μl per well on an ELISA plate. The adsorption time was 18 hours at +4° C. After five washes, the wells were treated with 100 µl of PBS supplemented with 0.1% Tween and 1% BSA for 45 minutes at 37° C., then each antibody or scFv was distributed in a proportion of 100 μl/well and incubated for one hour at 37° C. On each hormone evaluated, the antibody and the scFv were distributed at various concentrations according to a range of 10 to 250 μg/ml for the antibodies and of 10 to 150 or 200 μg/ml for the scFv.
(§2) After five washes, a secondary antibody coupled to peroxidase (HRP) was distributed in a proportion of 100 µl/well and incubated for one hour at 37° C. Depending on the isotype of the monoclonal antibody studied, the secondary antibody was an anti-IgG1 HRP (Ref. 115-035-205, Jackson ImmunoResearch Laboratories Inc), an anti-IgG2a HRP (Ref. 115-035-206, Jackson Laboratories) or an anti-IgM HRP (Ref. 115-035-075, Jackson Laboratories). For the scFvs, an anti-His Tag HRP (Ref. R93125 Life Technologies, France) was used. […] After the reaction had been stopped with 1 M H₂SO₄ (50 μl/well), the strength of the colored reaction (optical density) was measured using a spectrophotometer for ELISA plates.
(§3) An estimation of the dissociation constant Kd of the scFv, with respect to the various FSH, LH and CG studied, was calculated on GraphPad Prism (GraphPad Software Inc., San Diego, Calif., USA, version 5) using the “One site—Specific binding” function in a saturation binding model (“saturation binding experiment model”, GraphPad PRISM software).

For test [5], the target named is T3, porcine LH (porcine, UniProt P01219 25-120; P01232 21-141). The test is described as above. On the procedure: as §1, §2, §3
Test [6] addresses T1, ovine FSH. The test is described as above. As to the method:
as §1, §2, §3

The target in test [7] is T4, ovine LH (ovine, UniProt P01218 25-120; P01231 21-141). Described as above. On the procedure: as §1, §2, §3
In test [8] the target is T5, hCG Chorulon (human chorionic gonadotropin extracted from urine of pregnant women, MSD) (human, UniProt P01215 25-116; P0DN86 21-165).
T5 construct: Commercial urinary hCG, veterinary preparation
Described as above. As to the method:
as §1, §2, §3

The target of test [9] is T6, hCG Endo 5000 (purified human chorionic gonadotropin, Schering-Plough) (human, UniProt P01215 25-116; P0DN86 21-165).
T6 construct: Commercial purified hCG
The test is described as above. On the procedure:
as §1, §2, §3

In test [10] the target is T7, equine chorionic gonadotropin (equine, UniProt P01220 25-120; P08751 21-169).
T7 construct: also called eCG
The description is as above. On the procedure:
as §1, §2, §3

In test [11] the target is T8, bovine LH (bovine, UniProt P01217 25-120; P04651 21-141). The description is as above. On the procedure: as §1, §2, §3
The target of test [12] is T3, porcine LH. Briefly: ELISA; hormone adsorbed on the plate (10 µg/ml), scFv at 200 µg/ml, anti-His Tag HRP. On the procedure:
as §1, §2
(In general: An ELISA detects its analyte on a solid surface through an enzyme-linked reagent.)

For test [13], the target named is T4, ovine LH. The test is described as above. As to the method: as §1, §2
Test [14] concerns the target T5, hCG Chorulon (human chorionic …). Described as above. On the procedure: as §1, §2
The target of test [15] is T6, hCG Endo 5000 (purified human chorionic …). The test is described as above. On the procedure:
as §1, §2

In test [16] the target is T7, equine chorionic gonadotropin. The test is described as above. On the procedure:
as §1, §2

Test [17] addresses T8, bovine LH. Described as above. On the procedure: as §1, §2

As a reminder, the Kd is the concentration at which binding is half-saturated.

T7 sequence (P01220 25-120, chain 1 of 2): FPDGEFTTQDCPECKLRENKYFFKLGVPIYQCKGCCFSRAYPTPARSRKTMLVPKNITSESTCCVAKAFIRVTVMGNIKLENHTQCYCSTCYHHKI
T7 sequence (P08751 21-169, chain 2 of 2): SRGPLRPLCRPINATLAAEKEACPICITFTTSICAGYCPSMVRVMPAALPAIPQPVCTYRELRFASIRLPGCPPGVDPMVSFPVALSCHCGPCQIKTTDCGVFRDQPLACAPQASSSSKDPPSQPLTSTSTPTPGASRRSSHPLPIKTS
T6 sequence (P01215 25-116, chain 1 of 2, other chains not shown): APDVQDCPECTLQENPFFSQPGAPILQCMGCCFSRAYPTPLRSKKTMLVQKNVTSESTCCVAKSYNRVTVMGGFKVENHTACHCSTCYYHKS
T5 sequence (P01215 25-116, chain 1 of 2, other chains not shown): as above
human FSH Gonal-F (recombinant human FSH, Merck Serono), sequence (P01215 25-116, chain 1 of 2): as the sequence (P01215 25-116, chain 1 of 2, other chains not shown) above
human FSH Gonal-F (recombinant human FSH, Merck Serono), sequence (P01225 19-129, chain 2 of 2): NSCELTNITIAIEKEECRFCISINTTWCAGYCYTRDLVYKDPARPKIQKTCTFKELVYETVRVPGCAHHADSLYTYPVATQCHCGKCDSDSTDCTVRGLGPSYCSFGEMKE
human FSH (preparation not named), sequence (P01215 25-116, chain 1 of 2): as the sequence (P01215 25-116, chain 1 of 2, other chains not shown) above
human FSH (preparation not named), sequence (P01225 19-129, chain 2 of 2): as the sequence (P01225 19-129, chain 2 of 2) above

B1: CF12 monoclonal antibody (antibody, IgM, V domains shown)
VH: QGQMQQSGAELVKPGASVKLSCKTSGFTFSSSYISWLKQKPGQSLEWIAWIYAGTGGTSYNQKFTGKAQLTVDTSSSTAYMQFSSLTTEDSAIYYCARHGSYFDYWGQGTTLTVSS
VL: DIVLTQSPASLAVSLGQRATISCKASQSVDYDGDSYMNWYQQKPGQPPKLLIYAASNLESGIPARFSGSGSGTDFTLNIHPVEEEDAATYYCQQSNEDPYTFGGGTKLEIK
Take B1: the “increase in the bioactivity of the hormone, LogEC50, GloSensor HEK 293 hFSHR cells” value in the test with porcine FSH is 0.717 LogEC50; with ovine FSH [1], 1.06 LogEC50. Besides, the “cAMP secretion of bovine granulosa cells, hFSH 3-25 ng/ml pre-complexed with 0.1 µg/ml CF12 against hFSH alone” value in test [2] was found to be 2.5 fold. Besides, the “increase in the bioactivity of the hormone, LogEC50 units, GloSensor HEK 293 hFSHR cells” value in test [3] was 0.7 LogEC50 units.

B2: CF12 scFv (scFv)
scFv: QVQLQQSGGAELVKPGASVKLSCKTSGFTFSSSYISWLKQKPGQSLEWIAWIYAGTGGTSYNQKFTGKAQLTVDTSSSTAYMQFSSLTTEDSAIYYCARHGSYFDYWGQGTTLTVSSGGGGSGGGGSGGGGSDIQMTQTPASLAVSLGQRATISCKASQSVDYDGDSYMNWYQQKPGQPPKLLIYAASNLESGIPARFSGSGSGTDFTLNIHPVEEEDAATYYCQQSNEDPYTFGGGTKLEIKHHHHHH
notes: Made in E. coli periplasm; also called scFv derived from the CF12 antibody
On to B2, for which the Kd in test [4] is 14 µM; with porcine LH [5], 4.73 µM; with ovine FSH [6], 3.78 µM; with ovine LH [7], 5.81 µM; in [8], 5.07 µM; in test [9], 6.24 µM. Further, the dissociation constant Kd is 6.12 µM in test [10] and 5.03 µM with bovine LH [11]. Further, the optical density with porcine LH [12] came to 2.2 optical density units; with ovine LH [13] it was 2 optical density units; in test [14], 0.35 optical density units; in [15] it was 0.38 optical density units; in test [16], 0.6 optical density units; with bovine LH [17] it was 2.2 optical density units.

Source of the values: patent US20170190773A1 (IGYXOS, published 2017).
